Measurements: article PMC7145699, “Structural insights into target DNA recognition by R2R3-MYB transcription factors”
Changes are numbered by the printed parent chain.

T1: WER L59A (Arabidopsis, UniProt Q9SEI0 12-130, L59A)
T1 sequence: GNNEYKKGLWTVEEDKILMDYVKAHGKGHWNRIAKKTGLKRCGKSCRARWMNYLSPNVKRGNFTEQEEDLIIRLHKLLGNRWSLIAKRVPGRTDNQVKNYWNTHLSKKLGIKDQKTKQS

T2: WER L59E (Arabidopsis, UniProt Q9SEI0 12-130, L59E)
T2 sequence: T1 sequence with A48E

T3: WER K55A (Arabidopsis, UniProt Q9SEI0 12-130, K55A)
T3 sequence: T1 sequence with K44A, A48L

B1: A12:T11* (dsDNA)
DNA 1: AAATTCTCCAAACGCATTTTC
DNA 2: GAAAATGCGTTTGGAGAATTT
B2: GL2 promoter WER target DNA (dsDNA)
DNA 1: AAATTCTCCAACCGCATTTTC
DNA 2: GAAAATGCGGTTGGAGAATTT
B3: T12:A11* (dsDNA)
DNA 1: AAATTCTCCAATCGCATTTTC
DNA 2: GAAAATGCGATTGGAGAATTT
B4: 5mC12 DNA (AA5mC) (dsDNA)
DNA 1: AAATTCTCCAACCGCATTTTC
DNA 2: GAAAATGCGGTTGGAGAATTT
modifications: 5mC at C12 of strand 1
B5: G12:C11* (dsDNA)
DNA 1: AAATTCTCCAAGCGCATTTTC
DNA 2: GAAAATGCGCTTGGAGAATTT

How the values were obtained:
Test in all cases: ITC; ITC: 150 mM NaCl, 20 mM HEPES pH 7.5, 25 C, 400 uM protein into 20 uM DNA; EMSA: 150 mM NaCl, 20 mM Tris-HCl pH 8.0, on ice 1 h, 0.1 uM DNA, 6% native PAGE 0.5x TBE
Settings in all cases: protein: recombinant; tags: 6xHis-SUMO removed by Ulp1; blunt
WER L59A = target: T1, WER L59A
WER L59E [1] = target: T2, WER L59E
WER K55A = target: T3, WER K55A
WER L59E [2] = target: T2, WER L59E; remark: listed apart in the source

| Binder | binding result (WER L59A) | other results |
| --- | --- | --- |
| B1 | binds | – |
| B2 | – | Kd (WER L59A): 47 nM; Kd (WER L59E [1]): 47.8 nM; binding signal (WER K55A): > 40 fold decrease in affinity vs WT |
| B3 | binds | – |
| B4 | binds | binding signal (WER L59E [2]): ~4 fold decrease in affinity vs N1 |
| B5 | binds | – |
